Key:
[1] = test system: SH-SY5Y cells; experiment: Rotenone cell model (PD) with immunoblotting of α-synuclein oligomer; assay type: cell-based; conditions: 5 μM rotenone, QD202 at 0.1 μM, 0.2 μM, 0.5 μM and 1 μM, 24 hours
Description: The rotenone cell model is a commonly used Parkinson's disease (PD) in vitro cell model.
SH-SY5Y cells are cultured in complete medium composed of high-glucose DMEM and 10% fetal bovine serum, placed in an incubator maintained at 37° C. and 5% carbon dioxide for culture. On the day before the rotenone model is established, cells are passaged from 60 mm dishes to 6-well plates, and QD202 treatment experiments are conducted 24 hours after cell passage.
After 24 hours of SH-SY5Y culture, the rotenone model is established. A mixed solution containing 5 μM rotenone and various concentrations of QD202 (0, 0.1 μM, 0.2 μM, 0.5 μM, 1 μM, 5 μM, 10 μM) is prepared with complete medium. SH-SY5Y cells are removed from the culture medium, the mixed solution is added and mixed well, and incubated in the incubator for 24 hours.
After 24 hours of QD202 treatment, the cells are placed on ice, and 200 μL of cell lysis buffer containing protease inhibitors (25 mM Tris-HCL, 150 mM NaCl, 1 mM EDTA, 1% NP40, 5% Glycerol) is added. The cells are collected into the lysis buffer and the collected samples are rotated and lysed at 4° C. for 30 minutes.
The samples are centrifuged at 4° C. for 10 minutes, and the supernatant is collected. 180 μL of the supernatant is retained and 60 μL of 4×loading buffer is added. […]

[2] = biological target: T1, ATP6V1B2 (Mus musculus, UniProt P62814); experiment: Immunoprecipitation from hippocampus of mice given biotin-labeled polypeptide, with SDS-PAGE and protein mass spectrum identification; assay type: binding; set-up: from tissue; host or cells: mouse brain hippocampus; conditions: biotin-labeled polypeptide 6.25 mg/kg through veins, hippocampus collected after 4 h, compared with disordered control QD201
T1 sequence (P62814 whole entry): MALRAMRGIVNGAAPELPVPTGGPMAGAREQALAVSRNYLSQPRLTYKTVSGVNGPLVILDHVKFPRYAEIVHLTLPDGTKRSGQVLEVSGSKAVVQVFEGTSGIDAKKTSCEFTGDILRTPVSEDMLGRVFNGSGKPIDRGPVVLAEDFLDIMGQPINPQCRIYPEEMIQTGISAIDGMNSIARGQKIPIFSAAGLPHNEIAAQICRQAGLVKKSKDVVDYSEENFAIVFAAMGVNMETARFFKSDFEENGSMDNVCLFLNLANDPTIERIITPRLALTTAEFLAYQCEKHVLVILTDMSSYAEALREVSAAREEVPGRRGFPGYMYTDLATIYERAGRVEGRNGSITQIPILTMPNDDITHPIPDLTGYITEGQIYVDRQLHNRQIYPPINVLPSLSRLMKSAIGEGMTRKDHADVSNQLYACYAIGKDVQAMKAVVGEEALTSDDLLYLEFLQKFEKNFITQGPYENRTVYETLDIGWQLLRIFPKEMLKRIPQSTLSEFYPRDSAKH
Description: (1) Polypeptide QD202 was synthesized according to the amino acid sequence as set forth in SEQ ID NO. 1, and a biotin label was added at the […] of the polypeptide; and the amino acid sequence of the QD202 was randomly disorganized, a disordered control QD201 (the amino acid sequence as set forth in SEQ ID NO. 7) was synthesized, and the biotin label was added at the […] of the polypeptide. The polypeptide QD202 and the QD201 were dissolved by PBS, and a storage solution is prepared with the concentration of 500 μM.
(2) The biotin-labeled QD202 and QD201 were respectively feed to 2 C57BL/6 mice of 8 months old through veins at the dosage of 6.25 mg/kg. The mice were anesthetized after 4 h, brain hippocampus tissues were collected, a lysis buffer solution was added, the tissues were crushed by mechanical grinding, and then supernatant was collected after centrifuging. The biotin antibody and Protein G agarose beads were added into the supernatant for immunoprecipitation, the test steps referred to Using Antibodies: A Laboratory Manual [J]. Science Press, 2002. The proteins were eluted by a protein loading buffer solution. […]

[3] = biological target: T1, ATP6V1B2; experiment: Co-immunoprecipitation in HEK 293 cells transfected with murine Atp6V1b2 expression plasmid with myc tag; assay type: binding; set-up: expressed in transfected cells; host or cells: HEK 293; conditions: HEK 293 cell lysate, biotin antibody, immunoblotting
Description: (6) A murine Atp6V1b2 expression plasmid with a myc tag at the 3′ end was constructed; the plasmid was transfected in HEK 293 cells; the cells were collected after 2 days; and cell protein was extracted. The biotin antibody and protein G agarose beads were added into a cell lysis solution for co-immunoprecipitation^[1], and the protein was eluted by the protein loading buffer solution.
(7) SDS-PAGE protein electrophoresis gel was prepared, the concentration of lower-layer separation gel was 10%, and the concentration of upper-layer concentrated gel was 4%; the sample was added into a loading hole; and the protein was detected by an immunoblotting method, with the result shown in FIG. 6b.

Question: What does the source list for “QD202: polypeptide synthesized according to the amino acid sequence as set forth in SEQ ID NO. 1 (YGRKKRRQRRRSPVDVVCS; QD202)”?
Answer: increase in α-synuclein oligomer caused by rotenone treatment [1]: dose-dependently reduce; protein specifically bound to the polypeptide (mass spectrum identification) [2]: protein specifically bound to QD202 was ATP6V1B2; binding to ATP6V1B2 protein by co-immunoprecipitation [3]: specific binding between the QD202 and the ATP6V1B2 protein can be found
